# Data published in publication PMC5727390, “Targeted inhibition of STAT/TET1 axis as a therapeutic strategy for acute myeloid leukemia”.
# B1: TET1-CPG probe (dsDNA)
# DNA 1: CCGGTAGGCGTCCTCCGCGACCCGC
# DNA 2: GCGGGTCGCGGAGGACGCCTACCGG
# Biological target: STAT3 (UniProt P40763 127-722)
# Assay: EMSA; no compound; Signosis EMSA Assay Kit, manufacturer's protocol with minor modifications; buffer, salt, pH and temperature not stated
# Conditions: chain copies: 2; label: 5' biotin on both strands; blunt
# STAT3, sequence (P40763 127-722): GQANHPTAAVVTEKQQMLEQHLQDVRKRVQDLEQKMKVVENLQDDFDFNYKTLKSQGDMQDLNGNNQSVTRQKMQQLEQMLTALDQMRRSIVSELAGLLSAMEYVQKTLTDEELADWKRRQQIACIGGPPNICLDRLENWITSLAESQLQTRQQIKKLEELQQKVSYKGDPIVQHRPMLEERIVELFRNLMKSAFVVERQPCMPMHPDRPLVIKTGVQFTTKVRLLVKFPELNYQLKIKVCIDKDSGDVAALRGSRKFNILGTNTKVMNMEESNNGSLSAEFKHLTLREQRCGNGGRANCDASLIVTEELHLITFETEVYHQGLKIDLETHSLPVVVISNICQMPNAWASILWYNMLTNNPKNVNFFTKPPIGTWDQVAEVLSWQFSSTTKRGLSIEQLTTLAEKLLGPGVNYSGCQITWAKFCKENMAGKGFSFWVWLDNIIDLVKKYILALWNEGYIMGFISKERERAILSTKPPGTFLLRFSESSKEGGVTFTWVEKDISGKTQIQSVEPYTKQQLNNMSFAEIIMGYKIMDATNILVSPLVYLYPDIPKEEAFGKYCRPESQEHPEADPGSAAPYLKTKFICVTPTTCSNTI
binder,measurement,value
B1,binding result,binds
